Consider three molecules from patent publication US20200254071A1, “COMPOSITIONS AND METHODS FOR THROMBOEMBOLISM DISSOLUTION” (priority 2016, published 2020).

Series [1] deals with thrombus or embolus in cats with ATE. Particulars: cited from earlier work.
The test system of series [2] is thrombus or embolus in cats. The note with it: cited from earlier work.
For series [3] the following is noted: in vivo. As to the method: To ensure the efficacy of these two thrombolytic agents, an enteric coating is appropriate for some orally administered embodiments. The enteric coating allows the nattokinase and rutin bioflavonoid to travel through the acidic environment of the stomach without being dissolved. Nattokinase and rutin can then be absorbed into the bloodstream or circulation via the small intestine. Once absorbed, nattokinase remains active in the bloodstream for approximately 12 hours. In one embodiment, the enteric coating is composed of methacrylic acid copolymer and triethyl citrate. Additional ingredients may include, for example, arabinoglactan, microcrystalline cellulose, maltodextrin, stearic acid, croscarmellose sodium, silicon dioxide. During this clinical trial, participants were not on any other thrombolytic or fibrinolytic (blood thinning) agents.

The subject of a further series is blood clots. Kind of series: thrombolytic activity of the single agents, inventor's private research study. The format is in vivo. Particulars: single agent. From the text:
However, both agents can be dissolved in stomach acids, rendering certain dosage forms nearly useless as thrombolytic agents. This may explain why the potency of previous oral thrombolytics is decreased in comparison to injected thrombolytic agents. Enteric coatings reduce the active ingredients' rate of digestion in stomach acids, leading to enhanced efficacy of the active ingredient(s).

Series [4] deals with fibrinolytic activity in the plasma. Kind of series: oral administration of nattokinase: fibrinolytic activity in the plasma. It is filed as in vivo. From the text: There are no known studies that examine the efficacy of nattokinase as a thrombolytic agent in cats.
The conditions of series [5]: purified form; cited from earlier work.
Series [6] deals with artificially induced thrombosis. Particulars: dogs, capsules orally; cited from earlier work.

With “streptokinase: veterinary drug with the potential to dissolve a thrombus or embolus”, the “cats with pulses restored” value in series [1] (fraction of 46 cats) was “about half”. Besides, the “cats with motor function returned to their limbs” value in series [1] (within 24 hours) was 30%.

For the molecule “tPA: tissue-plasminogen activator, veterinary drug with the potential to dissolve a thrombus or embolus”, the “fatal complications due to metabolic acidosis and hyperkalemia” value in series [2] (cats with ATE) is on record as 70%. Also, the “cats with perfusion restored to their limbs” value in series [2] (fraction of cats given the drug) is “about two-thirds”.

B1: nattokinase: naturally occurring proteolytic enzyme derived from natto, soybeans fermented with Bacillus subtilis natto (protein, UniProt P35835 107-381, looked up)
Subtilisin NAT: AQSVPYGISQIKAPALHSQGYTGSNVKVAVIDSGIDSSHPDLNVRGGASFVPSETNPYQDGSSHGTHVAGTIAALNNSIGVLGVAPSASLYAVKVLDSTGSGQYSWIINGIEWAISNNMDVINMSLGGPTGSTALKTVVDKAVSSGIVVAAAAGNEGSSGSTSTVGYPAKYPSTIAVGAVNSSNQRASFSSVGSELDVMAPGVSIQSTLPGGTYGAYNGTSMATPHVAGAAALILSKHPTWTNAQVRDRLESTATYLGNSFYYGKGLINVQAAAQ
As for B1, the “time active in the bloodstream” value in series [3] is listed as “approximately 12 hours”. Besides, the thrombolytic activity result in the series with blood clots is given as “demonstrated thrombolytic activity”. Also, the “fibrinolytic activity in the plasma and production of tissue plasminogen activator” value in series [4] is “mild and frequent enhancement”. For the same molecule, in series [5], the “optimum pH of enzyme” value is listed as 7 and the “optimum temperature of enzyme” value is 37 °C. In addition, the “lysis of the thrombi by angiography” value in series [6] was “lysis of the thrombi was observed”.
